Holding throughout (settings): both partners purified
The target of one test is T1, Tof1 (S. cerevisiae (budding yeast), UniProt P53840 1-1238).
T1 construct: Tof1, budding yeast; the Tof1 chain of m2; Stood in the cross-linking sample as a chain of the Tof1-Csm3 complex; source: purified as part of Tof1-Csm3, as previously described (Yeeles et al. 2017)
T1 sequence (looked up): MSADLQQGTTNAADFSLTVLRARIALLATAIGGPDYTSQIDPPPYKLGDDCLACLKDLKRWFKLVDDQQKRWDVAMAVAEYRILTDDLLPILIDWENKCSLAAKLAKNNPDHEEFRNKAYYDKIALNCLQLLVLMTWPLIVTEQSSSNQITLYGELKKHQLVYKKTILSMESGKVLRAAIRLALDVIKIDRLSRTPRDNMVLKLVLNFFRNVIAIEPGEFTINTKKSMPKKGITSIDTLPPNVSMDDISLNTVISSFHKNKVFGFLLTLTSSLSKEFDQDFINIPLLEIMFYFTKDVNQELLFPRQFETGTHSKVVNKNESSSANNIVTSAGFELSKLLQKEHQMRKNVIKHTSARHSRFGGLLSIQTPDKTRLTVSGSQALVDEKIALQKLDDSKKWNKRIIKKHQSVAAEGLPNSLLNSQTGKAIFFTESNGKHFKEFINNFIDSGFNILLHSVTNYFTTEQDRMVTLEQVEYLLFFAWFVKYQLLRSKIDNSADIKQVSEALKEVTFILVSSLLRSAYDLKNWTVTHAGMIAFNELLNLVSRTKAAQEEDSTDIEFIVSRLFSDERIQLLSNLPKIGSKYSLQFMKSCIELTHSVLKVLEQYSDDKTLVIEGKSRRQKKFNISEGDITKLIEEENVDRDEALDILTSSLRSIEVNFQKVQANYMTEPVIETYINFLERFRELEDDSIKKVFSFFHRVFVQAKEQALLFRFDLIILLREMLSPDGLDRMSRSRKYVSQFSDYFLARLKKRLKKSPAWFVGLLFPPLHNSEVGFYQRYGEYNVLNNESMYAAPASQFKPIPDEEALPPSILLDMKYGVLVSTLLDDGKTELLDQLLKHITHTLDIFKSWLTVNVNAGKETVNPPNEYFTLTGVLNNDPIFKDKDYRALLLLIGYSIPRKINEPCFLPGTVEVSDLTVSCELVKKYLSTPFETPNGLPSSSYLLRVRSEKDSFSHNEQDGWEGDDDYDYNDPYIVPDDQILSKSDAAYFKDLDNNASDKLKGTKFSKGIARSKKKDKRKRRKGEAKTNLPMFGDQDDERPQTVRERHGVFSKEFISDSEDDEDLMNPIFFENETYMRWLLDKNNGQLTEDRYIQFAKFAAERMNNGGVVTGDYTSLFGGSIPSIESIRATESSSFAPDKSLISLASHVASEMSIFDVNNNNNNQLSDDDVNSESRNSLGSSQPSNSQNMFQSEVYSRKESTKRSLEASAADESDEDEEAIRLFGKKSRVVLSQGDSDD
Description: cross-linking; CLMS with sulfo-SDA; cohesin, Tof1-Csm3 and Chl1 with or without Mrc1 at 300-350 nM, 30 °C 5 min, cross-linker 2 h at 4 °C, UV 365 nm; LC-MS/MS, 1% FDR at residue-pair level; two samples merged.

The next test concerns the target T2, Tof1-Csm3 complex (S. cerevisiae (budding yeast), UniProt P53840 1-1238; Q04659 1-317).
T2 construct: Tof1, budding yeast; Csm3, budding yeast; Held on calmodulin dynabeads when used as bait; source: purified as previously described (Yeeles et al. 2017)
Description: pull-down; Flag-tagged Chl1 (200-600 nM) held on anti-Flag M2 magnetic beads; Tof1-Csm3 as prey; interaction buffer.

Test [1] has as its target T3, cohesin tetramer complex (Smc1-Smc3-Scc1-Scc3) (S. cerevisiae (budding yeast), UniProt P32908 1-1225; P47037 1-1230; Q12158 1-566; P40541 1-1150).
T3 construct: Smc1, cohesin subunit, budding yeast; Smc3, cohesin subunit, budding yeast; Scc1, cohesin subunit, budding yeast; Scc3, cohesin subunit, budding yeast; also called cohesin complex; source: purified as previously described (Minamino et al. 2018): IgG agarose, 3C protease cleavage; copies: + + +
In words: pull-down; cohesin tetramer (200-600 nM) held on Protein A dynabeads by anti-Pk antibody (Pk tag on Smc1); 200 nM prey, 30 °C, 5 min; 25 mM HEPES-KOH pH 7.6, 100 mM potassium glutamate, 10 mM magnesium acetate, 0.12% NP-40; SDS elution, Coomassie staining.

T3 sequence (Q12158 whole entry, chain 3 of 2): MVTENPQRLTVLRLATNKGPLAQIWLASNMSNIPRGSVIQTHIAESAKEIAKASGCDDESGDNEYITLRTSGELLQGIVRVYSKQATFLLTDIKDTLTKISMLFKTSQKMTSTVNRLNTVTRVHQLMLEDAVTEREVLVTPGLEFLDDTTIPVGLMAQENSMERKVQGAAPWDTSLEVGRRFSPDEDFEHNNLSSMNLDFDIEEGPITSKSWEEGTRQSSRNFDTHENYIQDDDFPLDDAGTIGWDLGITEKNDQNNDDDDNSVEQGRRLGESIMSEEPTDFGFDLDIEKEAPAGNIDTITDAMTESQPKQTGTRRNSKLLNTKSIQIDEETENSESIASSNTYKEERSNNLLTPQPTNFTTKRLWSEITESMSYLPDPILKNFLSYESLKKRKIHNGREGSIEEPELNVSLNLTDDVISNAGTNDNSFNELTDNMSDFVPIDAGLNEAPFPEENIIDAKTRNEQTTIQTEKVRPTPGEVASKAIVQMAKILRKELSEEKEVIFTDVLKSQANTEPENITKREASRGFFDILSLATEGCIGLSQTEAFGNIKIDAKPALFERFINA
T3 sequence (P40541 whole entry, chain 4 of 2): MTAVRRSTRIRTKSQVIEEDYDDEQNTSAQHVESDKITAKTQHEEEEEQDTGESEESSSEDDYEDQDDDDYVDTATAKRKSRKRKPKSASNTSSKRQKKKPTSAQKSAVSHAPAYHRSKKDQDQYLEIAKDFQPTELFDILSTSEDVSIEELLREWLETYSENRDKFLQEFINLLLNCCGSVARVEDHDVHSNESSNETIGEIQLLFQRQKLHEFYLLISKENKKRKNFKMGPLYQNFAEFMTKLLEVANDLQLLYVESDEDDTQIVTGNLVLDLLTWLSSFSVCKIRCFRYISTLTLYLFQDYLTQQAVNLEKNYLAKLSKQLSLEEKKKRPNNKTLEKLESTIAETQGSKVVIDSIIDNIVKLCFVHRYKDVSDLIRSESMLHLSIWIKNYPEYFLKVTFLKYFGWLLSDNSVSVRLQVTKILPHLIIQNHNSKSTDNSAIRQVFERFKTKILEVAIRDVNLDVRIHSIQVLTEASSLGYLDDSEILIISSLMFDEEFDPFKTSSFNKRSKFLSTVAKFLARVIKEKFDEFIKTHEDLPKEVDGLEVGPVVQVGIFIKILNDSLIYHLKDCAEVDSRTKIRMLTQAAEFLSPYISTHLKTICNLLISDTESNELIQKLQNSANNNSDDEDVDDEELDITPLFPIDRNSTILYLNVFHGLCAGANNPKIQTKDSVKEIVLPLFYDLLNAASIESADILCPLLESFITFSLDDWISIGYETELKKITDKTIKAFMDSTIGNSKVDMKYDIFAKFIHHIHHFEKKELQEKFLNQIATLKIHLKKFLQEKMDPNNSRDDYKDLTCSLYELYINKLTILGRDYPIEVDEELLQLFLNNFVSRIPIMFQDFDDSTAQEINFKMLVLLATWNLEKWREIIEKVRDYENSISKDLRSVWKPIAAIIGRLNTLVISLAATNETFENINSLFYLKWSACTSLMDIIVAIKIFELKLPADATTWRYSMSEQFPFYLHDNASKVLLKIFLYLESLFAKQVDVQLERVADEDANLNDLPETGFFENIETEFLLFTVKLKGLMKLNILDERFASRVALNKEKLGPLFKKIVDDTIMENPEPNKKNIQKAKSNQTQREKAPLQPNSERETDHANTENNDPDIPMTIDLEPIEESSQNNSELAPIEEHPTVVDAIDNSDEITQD

B1: Smc1 (natural protein, S. cerevisiae (budding yeast), UniProt P32908 1-1225, looked up)
chain: MGRLVGLELSNFKSYRGVTKVGFGESNFTSIIGPNGSGKSNMMDAISFVLGVRSNHLRSNILKDLIYRGVLNDENSDDYDNEGAASSNPQSAYVKAFYQKGNKLVELMRIISRNGDTSYKIDGKTVSYKDYSIFLENENILIKAKNFLVFQGDVEQIAAQSPVELSRMFEEVSGSIQYKKEYEELKEKIEKLSKSATESIKNRRRIHGELKTYKEGINKNEEYRKQLDKKNELQKFQALWQLYHLEQQKEELTDKLSALNSEISSLKGKINNEMKSLQRSKSSFVKESAVISKQKSKLDYIFKDKEKLVSDLRLIKVPQQAAGKRISHIEKRIESLQKDLQRQKTYVERFETQLKVVTRSKEAFEEEIKQSARNYDKFKLNENDLKTYNCLHEKYLTEGGSILEEKIAVLNNDKREIQEELERFNKRADISKRRITEELSITGEKLDTQLNDLRVSLNEKNALHTERLHELKKLQSDIESANNQEYDLNFKLRETLVKIDDLSANQRETMKERKLRENIAMLKRFFPGVKGLVHDLCHPKKEKYGLAVSTILGKNFDSVIVENLTVAQECIAFLKKQRAGTASFIPLDTIETELPTLSLPDSQDYILSINAIDYEPEYEKAMQYVCGDSIICNTLNIAKDLKWKKGIRGKLVTIEGALIHKAGLMTGGISGDANNRWDKEEYQSLMSLKDKLLIQIDELSNGQRSNSIRAREVENSVSLLNSDIANLRTQVTQQKRSLDENRLEIKYHNDLIEKEIQPKITELKKKLDDLENTKDNLVKEKEALQNNIFKEFTSKIGFTIKEYENHSGELMRQQSKELQQLQKQILTVENKLQFETDRLSTTQRRYEKAQKDLENAQVEMKSLEEQEYAIEMKIGSIESKLEEHKNHLDELQKKFVTKQSELNSSEDILEDMNSNLQVLKRERDGIKEDIEKFDLERVTALKNCKISNINIPISSETTIDDLPISSTDNEAITISNSIDINYKGLPKKYKENNTDSARKELEQKIHEVEEILNELQPNARALERYDEAEGRFEVINNETEQLKAEEKKILNQFLKIKKKRKELFEKTFDYVSDHLDAIYRELTKNPNSNVELAGGNASLTIEDEDEPFNAGIKYHATPPLKRFKDMEYLSGGEKTVAALALLFAINSYQPSPFFVLDEVDAALDITNVQRIAAYIRRHRNPDLQFIVISLKNTMFEKSDALVGVYRQQQENSSKIITLDLSNYAE
notes: Smc1, budding yeast; the Smc1 chain of m1; Stood in the cross-linking sample as a chain of cohesin; source: purified as part of cohesin, as previously described (Minamino et al. 2018)
With B1, the binding result with Tof1 is reported as “binds”.

B2: Csm3 (natural protein, S. cerevisiae (budding yeast), UniProt Q04659 1-317, looked up)
chain: MDQDFDSLLLGFNDSDSVQKDPTVPNGLDGSVVDPTIADPTAITARKRRPQVKLTAEKLLSDKGLPYVLKNAHKRIRISSKKNSYDNLSNIIQFYQLWAHELFPKAKFKDFMKICQTVGKTDPVLREYRVSLFRDEMGMSFDVGTRETGQDLERQSPMVEEHVTSAEERPIVADSFAQDKRNVNNVDYDNDEDDDIYHLSYRNRRGRVLDERGNNETVLNNVVPPKEDLDALLKTFRVQGPVGLEENEKKLLLGWLDAHRKMEKGSMTEEDVQLIQSLEEWEMNDIEGQHTHYDLLPGGDEFGVDQDELDAMKEMGF
notes: Csm3, budding yeast; the Csm3 chain of m2; Stood in the cross-linking sample as a chain of the Tof1-Csm3 complex; source: purified as part of Tof1-Csm3, as previously described (Yeeles et al. 2017)
Turning to B2, the binding result in the test with Tof1 was “binds”.

B3: Chl1 (natural protein, S. cerevisiae (budding yeast), UniProt P22516 1-861, looked up)
chain: MDKKEYSETFYHPYKPYDIQVQLMETVYRVLSEGKKIAILESPTGTGKTLSLICATMTWLRMNKADIFTRMETNIKTNEDDSENLSDDEPDWVIDTYRKSVLQEKVDLLNDYEKHLNEINTTSCKQLKTMCDLDKEHGRYKSVDPLRKKRKGARHLDVSLEEQDFIPRPYESDSENNDTSKSTRGGRISDKDYKLSELNSQIITLLDKIDGKVSRDPNNGDRFDVTNQNPVKIYYASRTYSQLGQFTSQLRLPSFPSSFRDKVPDEKVKYLPLASKKQLCINPKVMKWKTLEAINDACADLRHSKEGCIFYQNTNEWRHCPDTLALRDMIFSEIQDIEDLVPLGKSLGICPYYASREALPIAEVVTLPYQYLLSESTRSSLQINLENSIVIIDEAHNLIETINSIYSSQISLEDLKNCHKGIVTYFNKFKSRLNPGNRVNLLKLNSLLMTLIQFIVKNFKKIGQEIDPNDMFTGSNIDTLNIHKLLRYIKVSKIAYKIDTYNQALKEEESSKNENPIKETHKKSVSSQPLLFKVSQFLYCLTNLTSEGQFFFEKNYSIKYMLLEPSKPFESILNQAKCVVLAGGTMEPMSEFLSNLLPEVPSEDITTLSCNHVIPKENLQTYITNQPELEFTFEKRMSPSLVNNHLFQFFVDLSKAVPKKGGIVAFFPSYQYLAHVIQCWKQNDRFATLNNVRKIFYEAKDGDDILSGYSDSVAEGRGSLLLAIVGGKLSEGINFQDDLCRAVVMVGLPFPNIFSGELIVKRKHLAAKIMKSGGTEEEASRATKEFMENICMKAVNQSVGRAIRHANDYANIYLLDVRYNRPNFRKKLSRWVQDSINSEHTTHQVISSTRKFFSMRSLNSR
notes: Chl1, budding yeast; codon-optimized ectopic copy; also called Flag-tagged Chl1; Chl1 helicase
As to B3, the binding result (with Tof1-Csm3 complex; in test [1]) was “binds” in each case.

B4: Smc3 (natural protein, S. cerevisiae (budding yeast), UniProt P47037 1-1230, looked up)
chain: MYIKRVIIKGFKTYRNETIIDNFSPHQNVIIGSNGSGKSNFFAAIRFVLSDDYSNLKREERQGLIHQGSGGSVMSASVEIVFHDPDHSMILPSGVLSRGDDEVTIRRTVGLKKDDYQLNDRNVTKGDIVRMLETAGFSMNNPYNIVPQGKIVALTNAKDKERLQLLEDVVGAKSFEVKLKASLKKMEETEQKKIQINKEMGELNSKLSEMEQERKELEKYNELERNRKIYQFTLYDRELNEVINQMERLDGDYNNTVYSSEQYIQELDKREDMIDQVSKKLSSIEASLKIKNATDLQQAKLRESEISQKLTNVNVKIKDVQQQIESNEEQRNLDSATLKEIKSIIEQRKQKLSKILPRYQELTKEEAMYKLQLASLQQKQRDLILKKGEYARFKSKDERDTWIHSEIEELKSSIQNLNELESQLQMDRTSLRKQYSAIDEEIEELIDSINGPDTKGQLEDFDSELIHLKQKLSESLDTRKELWRKEQKLQTVLETLLSDVNQNQRNVNETMSRSLANGIINVKEITEKLKISPESVFGTLGELIKVNDKYKTCAEVIGGNSLFHIVVDTEETATLIMNELYRMKGGRVTFIPLNRLSLDSDVKFPSNTTTQIQFTPLIKKIKYEPRFEKAVKHVFGKTIVVKDLGQGLKLAKKHKLNAITLDGDRADKRGVLTGGYLDQHKRTRLESLKNLNESRSQHKKILEELDFVRNELNDIDTKIDQVNGNIRKVSNDRESVLTNIEVYRTSLNTKKNEKLILEESLNAIILKLEKLNTNRTFAQEKLNTFENDLLQEFDSELSKEEKERLESLTKEISAAHNKLNITSDALEGITTTIDSLNAELESKLIPQENDLESKMSEVGDAFIFGLQDELKELQLEKESVEKQHENAVLELGTVQREIESLIAEETNNKKLLEKANNQQRLLLKKLDNFQKSVEKTMIKKTTLVTRREELQQRIREIGLLPEDALVNDFSDITSDQLLQRLNDMNTEISGLKNVNKRAFENFKKFNERRKDLAERASELDESKDSIQDLIVKLKQQKVNAVDSTFQKVSENFEAVFERLVPRGTAKLIIHRKNDNANDHDESIDVDMDAESNESQNGKDSEIMYTGVSISVSFNSKQNEQLHVEQLSGGQKTVCAIALILAIQMVDPASFYLFDEIDAALDKQYRTAVATLLKELSKNAQFICTTFRTDMLQVADKFFRVKYENKISTVIEVNREEAIGFIRGSNKFAEV
notes: Smc3, budding yeast; the Smc3 chain of m1; Stood in the cross-linking sample as a chain of cohesin; source: purified as part of cohesin, as previously described (Minamino et al. 2018)
Regarding B4, the binding result in the test with Tof1 is “binds”.
